Measured values published in publication PMC9482650, “Quantitative fragmentomics allow affinity mapping of interactomes” (Nature Communications, 2022).
Changes are numbered by the printed parent chain.

T1: LIN7C, Q9NUP9
T1 sequence (Q9NUP9 88-185, limits assumed, looked up): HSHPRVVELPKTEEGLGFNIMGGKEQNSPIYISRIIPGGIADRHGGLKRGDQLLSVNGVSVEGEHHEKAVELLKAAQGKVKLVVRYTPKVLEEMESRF

T2: APBA1_2, Q02410
T2 sequence (Q02410 742-832, limits assumed, looked up): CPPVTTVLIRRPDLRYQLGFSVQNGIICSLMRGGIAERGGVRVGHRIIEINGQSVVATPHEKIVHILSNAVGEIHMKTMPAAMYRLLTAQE

T3: RHPN1, Q8TCX5
T3 sequence (Q8TCX5 508-602, limits assumed, looked up): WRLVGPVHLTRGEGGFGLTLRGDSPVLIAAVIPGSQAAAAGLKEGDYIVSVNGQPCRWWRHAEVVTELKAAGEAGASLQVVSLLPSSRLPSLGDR

T4: NHERF3_3, Q5T2W1
T4 sequence (Q5T2W1 238-333, limits assumed, looked up): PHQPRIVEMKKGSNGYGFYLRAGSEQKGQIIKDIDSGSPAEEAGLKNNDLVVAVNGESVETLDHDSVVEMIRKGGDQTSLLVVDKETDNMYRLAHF

T5: HTRA3, P83110
T5 sequence (P83110 354-453, limits assumed, looked up): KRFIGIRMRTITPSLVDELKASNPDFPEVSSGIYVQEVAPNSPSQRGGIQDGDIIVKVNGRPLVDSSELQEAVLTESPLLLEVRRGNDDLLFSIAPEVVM

T6: LIN7B, Q9HAP6
T6 sequence (Q9HAP6 88-185, limits assumed, looked up): T1 sequence (Q9NUP9 88-185, limits assumed, looked up) with S2A, E13D, I35V, I40V, H65Q, K79S, K89R, S96A

T7: DLG3_3, Q92796
T7 sequence (Q92796 374-475, limits assumed, looked up): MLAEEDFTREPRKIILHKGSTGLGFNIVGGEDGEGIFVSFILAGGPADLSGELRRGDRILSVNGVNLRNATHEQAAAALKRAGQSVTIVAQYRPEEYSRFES

T8: SNTA1, Q13424
T8 sequence (Q13424 82-180, limits assumed, looked up): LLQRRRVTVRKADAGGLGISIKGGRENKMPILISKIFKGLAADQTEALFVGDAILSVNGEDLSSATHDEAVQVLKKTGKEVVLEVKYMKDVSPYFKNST

B1: GRM5, P41594 (peptide)
chain: RDYTQSSSSL
B2: GRK6, P43250 (peptide)
chain: DSEEELPTRL
B3: POLR1D, P0DPB6 (peptide)
chain: QKASRNESTF

Experiments:
Assay in all cases: holdup assay
Set-up in all cases: key: below the threshold = too weak to quantify, mostly under pKd 3.1 to 4
Conditions in all cases: plain residues with an end cap or a label only (N-terminal biotin on a linker: ado-ado)
LNX1_2, Q8TBB1 = biological target: LNX1_2, Q8TBB1
LNX1_3, Q8TBB1 = biological target: LNX1_3, Q8TBB1
LIN7C, Q9NUP9 = biological target: T1, LIN7C, Q9NUP9
FRMPD2_2, Q68DX3 = biological target: FRMPD2_2, Q68DX3
APBA1_2, Q02410 = biological target: T2, APBA1_2, Q02410
RHPN1, Q8TCX5 = biological target: T3, RHPN1, Q8TCX5
MAGI2_3, Q86UL8 = biological target: MAGI2_3, Q86UL8
FRMPD3, Q5JV73 = biological target: FRMPD3, Q5JV73
GRIP2_3, Q9C0E4 = biological target: GRIP2_3, Q9C0E4
MAGI3_2, Q5TCQ9 = biological target: MAGI3_2, Q5TCQ9
DLG4_3, P78352 = biological target: DLG4_3, P78352
NHERF3_3, Q5T2W1 = biological target: T4, NHERF3_3, Q5T2W1
FRMPD2_1, Q68DX3 = biological target: FRMPD2_1, Q68DX3
Inadl_10, Q8NI35 = biological target: Inadl_10, Q8NI35
HTRA3, P83110 = biological target: T5, HTRA3, P83110
PARD3_3, Q8TEW0 = biological target: PARD3_3, Q8TEW0
GOPC, Q9HD26 = biological target: GOPC, Q9HD26
MAST2, Q6P0Q8 = biological target: MAST2, Q6P0Q8
Inadl_8, Q8NI35 = biological target: Inadl_8, Q8NI35
LIN7B, Q9HAP6 = biological target: T6, LIN7B, Q9HAP6
ARHGEF12, Q9NZN5-2 = biological target: ARHGEF12, Q9NZN5-2
Inadl_6, Q8NI35 = biological target: Inadl_6, Q8NI35
GORASP1, Q9BQQ3 = biological target: GORASP1, Q9BQQ3
Inadl_1, Q8NI35 = biological target: Inadl_1, Q8NI35
DLG2_2, Q15700 = biological target: DLG2_2, Q15700
NHERF4_4, Q86UT5 = biological target: NHERF4_4, Q86UT5
DLG3_3, Q92796 = biological target: T7, DLG3_3, Q92796
Inadl_4, Q8NI35 = biological target: Inadl_4, Q8NI35
MAGI1_2, Q96QZ7 = biological target: MAGI1_2, Q96QZ7
DLG1_1, Q12959 = biological target: DLG1_1, Q12959
SNTA1, Q13424 = biological target: T8, SNTA1, Q13424

Inadl_1, Q8NI35, sequence (Q8NI35 113-229): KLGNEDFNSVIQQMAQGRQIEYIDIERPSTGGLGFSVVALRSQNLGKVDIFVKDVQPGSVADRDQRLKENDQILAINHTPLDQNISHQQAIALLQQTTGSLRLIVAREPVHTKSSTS
MAST2, Q6P0Q8, sequence (Q6P0Q8 1099-1202): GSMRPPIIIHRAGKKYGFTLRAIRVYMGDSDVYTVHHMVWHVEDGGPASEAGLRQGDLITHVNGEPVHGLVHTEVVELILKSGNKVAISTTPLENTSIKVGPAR
PARD3_3, Q8TEW0, sequence (Q8TEW0 582-685): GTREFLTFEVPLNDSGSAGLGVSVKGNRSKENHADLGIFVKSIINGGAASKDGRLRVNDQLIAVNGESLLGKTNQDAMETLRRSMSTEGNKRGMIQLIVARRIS
NHERF4_4, Q86UT5, sequence (Q86UT5 464-550): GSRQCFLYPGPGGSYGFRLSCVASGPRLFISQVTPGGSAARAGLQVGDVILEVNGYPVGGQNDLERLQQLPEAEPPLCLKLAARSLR
DLG4_3, P78352, sequence (P78352 306-403): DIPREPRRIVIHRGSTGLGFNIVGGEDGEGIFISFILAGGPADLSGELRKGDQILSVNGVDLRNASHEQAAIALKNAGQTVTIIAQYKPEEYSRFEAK
Inadl_4, Q8NI35, sequence (Q8NI35 547-651): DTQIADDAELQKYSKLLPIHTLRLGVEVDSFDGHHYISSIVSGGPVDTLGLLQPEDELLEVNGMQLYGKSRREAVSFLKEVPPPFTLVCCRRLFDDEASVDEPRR
FRMPD2_1, Q68DX3, sequence (Q68DX3 770-861): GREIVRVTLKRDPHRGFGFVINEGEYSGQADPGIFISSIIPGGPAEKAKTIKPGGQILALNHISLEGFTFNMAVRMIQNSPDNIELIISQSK
GRIP2_3, Q9C0E4, sequence (Q9C0E4 238-339): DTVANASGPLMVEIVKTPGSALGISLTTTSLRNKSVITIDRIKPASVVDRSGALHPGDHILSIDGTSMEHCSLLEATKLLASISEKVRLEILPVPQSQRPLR
Inadl_6, Q8NI35, sequence (Q8NI35 1058-1167): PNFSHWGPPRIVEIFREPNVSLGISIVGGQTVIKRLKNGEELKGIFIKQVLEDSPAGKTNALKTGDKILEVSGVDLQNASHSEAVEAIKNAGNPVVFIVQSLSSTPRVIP
MAGI1_2, Q96QZ7, sequence (Q96QZ7 456-580): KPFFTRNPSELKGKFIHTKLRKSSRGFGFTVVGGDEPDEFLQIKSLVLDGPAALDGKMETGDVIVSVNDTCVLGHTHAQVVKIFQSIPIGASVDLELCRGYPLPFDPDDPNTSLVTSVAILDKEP
DLG2_2, Q15700, sequence (Q15700 189-283): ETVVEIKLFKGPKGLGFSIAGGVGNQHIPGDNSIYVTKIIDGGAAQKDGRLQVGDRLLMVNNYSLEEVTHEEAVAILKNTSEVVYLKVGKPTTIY
GORASP1, Q9BQQ3, sequence (Q9BQQ3 1-208): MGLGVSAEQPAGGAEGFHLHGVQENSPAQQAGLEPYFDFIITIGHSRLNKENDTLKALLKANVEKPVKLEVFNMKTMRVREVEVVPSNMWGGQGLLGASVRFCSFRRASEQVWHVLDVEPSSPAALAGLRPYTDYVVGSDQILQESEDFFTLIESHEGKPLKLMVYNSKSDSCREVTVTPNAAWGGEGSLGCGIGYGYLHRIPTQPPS
FRMPD3, Q5JV73, sequence (Q5JV73 12-100): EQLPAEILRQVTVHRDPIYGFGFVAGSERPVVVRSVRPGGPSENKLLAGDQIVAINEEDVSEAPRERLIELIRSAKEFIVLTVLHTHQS
MAGI2_3, Q86UL8, sequence (Q86UL8 600-682): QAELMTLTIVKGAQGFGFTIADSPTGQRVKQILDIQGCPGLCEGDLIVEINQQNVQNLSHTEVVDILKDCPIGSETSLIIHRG
Inadl_10, Q8NI35, sequence (Q8NI35 1673-1763): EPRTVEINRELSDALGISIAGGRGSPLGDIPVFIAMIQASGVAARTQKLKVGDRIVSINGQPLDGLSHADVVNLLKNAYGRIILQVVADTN
MAGI3_2, Q5TCQ9, sequence (Q5TCQ9 398-503): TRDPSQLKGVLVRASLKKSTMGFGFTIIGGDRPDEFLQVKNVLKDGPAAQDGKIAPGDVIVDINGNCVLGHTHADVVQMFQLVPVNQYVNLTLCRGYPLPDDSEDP
LNX1_2, Q8TBB1, sequence (Q8TBB1 371-470): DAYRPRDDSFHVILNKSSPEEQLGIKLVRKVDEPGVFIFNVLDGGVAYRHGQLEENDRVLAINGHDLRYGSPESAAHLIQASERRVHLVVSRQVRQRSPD
Inadl_8, Q8NI35, sequence (Q8NI35 1425-1530): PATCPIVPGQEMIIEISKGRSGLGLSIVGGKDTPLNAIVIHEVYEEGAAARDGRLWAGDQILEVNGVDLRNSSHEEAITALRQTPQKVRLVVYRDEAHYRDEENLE
FRMPD2_2, Q68DX3, sequence (Q68DX3 944-1038): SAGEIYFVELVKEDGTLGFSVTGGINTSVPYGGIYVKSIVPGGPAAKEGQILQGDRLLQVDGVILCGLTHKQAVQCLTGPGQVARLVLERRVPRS
ARHGEF12, Q9NZN5-2, sequence (Q9NZN5 other isoform, or with tags, fused parts or gaps): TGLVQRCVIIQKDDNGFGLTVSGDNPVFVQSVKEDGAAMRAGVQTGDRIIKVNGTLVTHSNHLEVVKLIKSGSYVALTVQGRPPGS
LNX1_3, Q8TBB1, sequence (Q8TBB1 500-596): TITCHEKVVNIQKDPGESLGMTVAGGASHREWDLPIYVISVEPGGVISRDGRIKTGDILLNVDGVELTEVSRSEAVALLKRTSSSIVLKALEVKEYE

Binder | pKd (LNX1_2, Q8TBB1) | pKd (LNX1_3, Q8TBB1) | pKd (LIN7C, Q9NUP9) | pKd (FRMPD2_2, Q68DX3) | pKd (APBA1_2, Q02410) | pKd (RHPN1, Q8TCX5) | pKd (MAGI2_3, Q86UL8) | pKd (FRMPD3, Q5JV73) | pKd (GRIP2_3, Q9C0E4) | pKd (MAGI3_2, Q5TCQ9) | pKd (DLG4_3, P78352) | pKd (NHERF3_3, Q5T2W1) | pKd (FRMPD2_1, Q68DX3) | pKd (Inadl_10, Q8NI35) | pKd (HTRA3, P83110) | pKd (PARD3_3, Q8TEW0) | pKd (GOPC, Q9HD26) | pKd (MAST2, Q6P0Q8) | pKd (Inadl_8, Q8NI35) | pKd (LIN7B, Q9HAP6) | other results
B1 | below the threshold | below the threshold | below the threshold | below the threshold | below the threshold | 3.51 | below the threshold | below the threshold | below the threshold | below the threshold | below the threshold | below the threshold | below the threshold | below the threshold | below the threshold | below the threshold | 3.55 | 5.15 | below the threshold | 3.52 | pKd (ARHGEF12, Q9NZN5-2): 4.28; pKd (Inadl_6, Q8NI35): below the threshold; pKd (GORASP1, Q9BQQ3): below the threshold; pKd (Inadl_1, Q8NI35): below the threshold; pKd (DLG2_2, Q15700): below the threshold; pKd (NHERF4_4, Q86UT5): below the threshold; pKd (DLG3_3, Q92796): below the threshold; pKd (Inadl_4, Q8NI35): below the threshold; pKd (MAGI1_2, Q96QZ7): below the threshold; pKd (DLG1_1, Q12959): below the threshold; pKd (SNTA1, Q13424): below the threshold
B2 | below the threshold | below the threshold | below the threshold | below the threshold | 4.16 | 3.55 | below the threshold | below the threshold | below the threshold | below the threshold | below the threshold | 3.7 | below the threshold | below the threshold | below the threshold | 4.09 | 3.83 | 4.83 | below the threshold | below the threshold | pKd (ARHGEF12, Q9NZN5-2): 3.57; pKd (Inadl_6, Q8NI35): below the threshold; pKd (GORASP1, Q9BQQ3): below the threshold; pKd (Inadl_1, Q8NI35): below the threshold; pKd (DLG2_2, Q15700): below the threshold; pKd (NHERF4_4, Q86UT5): below the threshold; pKd (DLG3_3, Q92796): below the threshold; pKd (Inadl_4, Q8NI35): below the threshold; pKd (MAGI1_2, Q96QZ7): below the threshold; pKd (DLG1_1, Q12959): below the threshold; pKd (SNTA1, Q13424): below the threshold
B3 | below the threshold | below the threshold | below the threshold | below the threshold | below the threshold | below the threshold | below the threshold | below the threshold | below the threshold | below the threshold | below the threshold | below the threshold | below the threshold | below the threshold | below the threshold | below the threshold | below the threshold | 4.95 | below the threshold | 3.96 | pKd (ARHGEF12, Q9NZN5-2): below the threshold; pKd (Inadl_6, Q8NI35): below the threshold; pKd (GORASP1, Q9BQQ3): below the threshold; pKd (Inadl_1, Q8NI35): below the threshold; pKd (DLG2_2, Q15700): below the threshold; pKd (NHERF4_4, Q86UT5): 3.81; pKd (DLG3_3, Q92796): 3.6; pKd (Inadl_4, Q8NI35): below the threshold; pKd (MAGI1_2, Q96QZ7): below the threshold; pKd (DLG1_1, Q12959): below the threshold; pKd (SNTA1, Q13424): below the threshold
